Data from patent publication US20180312587A1 (ADURO BIOTECH HOLDINGS EUROPE B V, published 2018).

Key:
[1] = target: T1, hSIRPα expressed on primary human cells (human, UniProt P78324 31-504); assay: flow cytometry on primary human granulocytes, FITC goat-anti-mouse Ig
T1 construct: whole, on cells; also called hSIRPα on primary human CD14+ monocytes; on primary human granulocytes
Experimental: To confirm the functionality of hSIRPα.50A in primary immune cells, granulocytes (e.g. effector cells) were isolated from healthy human donor EDTA blood. First, the EDTA blood of each donor was pooled and centrifuged at 300 g for 6 minutes at 20° C. Next, plasma was removed by aspiration, and the remaining blood cells were gently resuspended. Cells were recovered in red blood cell (RBC) lysis buffer (155 mM NH4Cl; 10 mM KHCO3) and incubated for 10 minutes on ice. Next, cells were centrifuged at 300 g for 7 minutes. Supernatants containing lysed RBCs were removed by aspiration, and the remaining blood cells were gently resuspended in RBC lysis buffer and kept on ice for 1 minute. […] The percentage of granulocytes present in the cell suspension was determined by flow cytometry on the FACSCanto II (BD Biosciences) based on high forward scatter (FSC) and side scatter (SSC). Binding of hSIRPα.50A to human granulocytes was assessed by incubating the cells for 30 minutes at 4° C. with hSIRPα.50A antibody (25 μg/mL and dilutions thereof) in PBS/1% BSA containing 10% autologous serum (PBS/1% BSA/10% serum). […] After this labeling procedure, cells were washed two times, resuspended in PBS/1% BSA/10% serum and analysed by flow cytometry on the FACSCanto II (BD Biosciences). Data were processed and analysed with FlowJo V10 software (FlowJo, LLC).

[2] = target: T2, human SIRPβ1 (human, UniProt O00241 30-398); assay: CELISA, CHO-K1 transfectants
T2 construct: also called hSIRPβ1
Experimental: Reactivity was confirmed using CHO-K1 cells (ATCC CCL-61) that had been transiently transfected, using Lipofectamine 2000, with cDNA encoding the full length open reading frame of hSIRPαV1, hSIRPαV2, hSIRPβ1, hSIRPβL, and hSIRPγ subcloned into the pCI-neo vector (Promega, Madison, Wis.). CHO-K1.hSIRPαV1, CHO-K1.hSIRPαV2, CHO-K1.hSIRPβ1, CHO-K1.hSIRPβL, and CHO-K1.hSIRPγ cells were seeded in culture medium (DMEM-F12 (Gibco) supplemented with 5% New Born Calf Serum (BioWest) and Pen/Strep (Gibco)) in 96-well flat-bottom tissue culture plates and incubated at 37° C., 5% CO₂ and 95% humidity for 24 hours. Subsequently, culture medium was removed and cells were incubated for 1 hour at 37° C., 5% CO₂ and 95% humidity with purified hSIRPα antibodies (used at 10 μg/mL and dilutions thereof). Next, cells were washed with PBS-T and incubated for 1 hour at 37° C., 5% CO₂ and 95% humidity with goat-anti-mouse IgG-HRP (Southern Biotech). Subsequently, cells were washed three times with PBS-T and immunoreactivity against hSIRPαV1, hSIRPαV2, hSIRPβ1, hSIRPβL, and hSIRPγ was visualized with TMB Stabilized Chromogen (Invitrogen). Reactions were stopped with 0.5 M H₂SO₄ and absorbances were read at 450 and 610 nm.
The KWAR23 antibody cross-reacts with all members of the SIRP receptor family tested: it binds to hSIRPαV1, hSIRPαV2, hSIRPβ1, hSIRPβL, and hSIRPγ.

[3] = target: T2, human SIRPβ1; assay: CELISA, CHO-K1 transfectants; average of two experiments
Experimental: The binding specificity of antibody hSIRPα.50A to hSIRPα was compared antibody KWAR23 (Canadian Patent 2939293 A1), in a CELISA format. CHO-K1 cells were transiently transfected with hSIRPαV1, hSIRPαV2, hSIRPβ1, and hSIRPγ (GenBank accession: NM_018556.3) (SEQ ID NO: 39) cDNAs. Subsequently, hSIRPα binding was assessed by CELISA using CHO-K1.hSIRPαV1, CHO-K1.hSIRPαV2, CHO-K1.hSIRPβ1, and CHO-K1.hSIRPγ cells. Detection of bound antibody was performed with goat-anti-mouse IgG-HRP (Southern Biotech) for mouse antibodies including hSIRPα.50A and control antibodies or, alternatively, with goat-anti-human IgG-HRP conjugate (Jackson Immuno Research) for the KWAR23 antibody. KWAR23 (SEQ ID NO: 130; SEQ ID NO: 131) was expressed as a chimeric human IgG4 kappa antibody in CHO cells. As shown in FIG. 2 and the following Table 9, KWAR23 antibody cross-reacts with all members of the SIRP receptor family tested: it binds to hSIRPαV1, hSIRPαV2, hSIRPβ1, and hSIRPγ.

T2 sequence (O00241 30-398 limits assumed): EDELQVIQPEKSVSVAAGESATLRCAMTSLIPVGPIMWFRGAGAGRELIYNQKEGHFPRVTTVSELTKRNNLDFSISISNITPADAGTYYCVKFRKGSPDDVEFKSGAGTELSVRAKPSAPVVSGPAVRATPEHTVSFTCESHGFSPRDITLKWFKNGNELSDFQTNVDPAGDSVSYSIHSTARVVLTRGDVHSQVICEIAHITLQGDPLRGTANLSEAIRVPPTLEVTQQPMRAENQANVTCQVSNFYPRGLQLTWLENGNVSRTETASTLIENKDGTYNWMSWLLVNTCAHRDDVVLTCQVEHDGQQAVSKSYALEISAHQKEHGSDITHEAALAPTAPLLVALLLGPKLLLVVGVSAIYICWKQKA
T1 sequence (P78324 31-504): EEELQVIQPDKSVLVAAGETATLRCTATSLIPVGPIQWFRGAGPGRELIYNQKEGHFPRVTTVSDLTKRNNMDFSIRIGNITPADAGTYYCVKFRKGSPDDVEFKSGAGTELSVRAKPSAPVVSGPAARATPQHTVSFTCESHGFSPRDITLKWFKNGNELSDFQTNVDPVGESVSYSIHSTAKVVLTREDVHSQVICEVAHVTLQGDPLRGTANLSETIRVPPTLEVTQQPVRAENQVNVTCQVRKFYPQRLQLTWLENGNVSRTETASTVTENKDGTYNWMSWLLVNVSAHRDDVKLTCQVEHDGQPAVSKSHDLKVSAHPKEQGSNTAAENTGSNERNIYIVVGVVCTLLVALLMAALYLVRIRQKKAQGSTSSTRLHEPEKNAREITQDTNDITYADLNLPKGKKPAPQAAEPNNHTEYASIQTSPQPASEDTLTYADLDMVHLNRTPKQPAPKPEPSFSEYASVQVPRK

| Binder | EC50 (read off the curve) [1] | EC50 [2] | EC50 [3] |
| --- | --- | --- | --- |
| hSIRPα.50A (antibody, V domains shown, light chain constant domain not tied; also called mouse hSIRPα.50A; hSIRPα.50A.mIgG1) VH: QVQLQQSGPELVKPGASVRISCKASGFTFTNYYIHWVKQRPGQGLEWIGWIYPGNVNTKYNEKFKAKATLTADKSSTTAYMQLSSLASEDSAVYFCARPTIIATDFDVWGAGTTVTVSS VL: DIVMTQSHKFMSTSVGDRVNITCKASQGVGTAVGWYQQKPGQSPRLLIYWASTRHTGVPDRFTGSGSGTDFSLAISNVQSEDLADYFCQQYSTYPFTFGGGTNLEIK | ~3000 pM | – | – |
| KWAR23 (antibody, V domains shown) VH: EVQLQQSGAELVKPGASVKLSCTASGFNIKDYYIHWVQQRTEQGLEWIGRIDPEDGETKYAPKFQDKATITADTSSNTAYLHLSSLTSEDTAVYYCARWGAYWGQGTLVTVSS VL: QIVLTQSPAIMSASPGEKVTLTCSASSSVSSSYLYWYQQKPGSSPKLWIYSTSNLASGVPARFSGSGSGTSYSLTISSMEAEDAASYFCHQWSSYPRTFGAGTKLELK | – | 140 pM | 161 pM |
